# From article PMC10681739, “High-throughput data and modeling reveal insights into the mechanisms of cooperative DNA-binding by transcription factor proteins”
# T1: ETS1 (Homo sapiens, UniProt P14921)
# T1 sequence: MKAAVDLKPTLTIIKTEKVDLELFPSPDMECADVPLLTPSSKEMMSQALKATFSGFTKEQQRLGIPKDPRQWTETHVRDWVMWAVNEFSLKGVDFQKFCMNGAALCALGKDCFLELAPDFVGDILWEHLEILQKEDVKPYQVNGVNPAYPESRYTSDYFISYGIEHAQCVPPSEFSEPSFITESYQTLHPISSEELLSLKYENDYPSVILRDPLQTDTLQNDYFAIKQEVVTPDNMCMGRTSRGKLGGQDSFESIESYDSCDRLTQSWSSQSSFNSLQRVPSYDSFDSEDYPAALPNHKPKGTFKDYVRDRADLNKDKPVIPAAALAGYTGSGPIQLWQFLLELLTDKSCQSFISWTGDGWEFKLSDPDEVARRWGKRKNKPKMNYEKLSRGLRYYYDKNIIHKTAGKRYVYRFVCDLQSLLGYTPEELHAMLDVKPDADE
# Target: T1, ETS1
# Assay: gcPBM; 1 nM ETS1
# Conditions: tags: N-terminal GST (pDEST15), kept (PMC6008103); label: surface-attached array probe
row,Binder,binding signal
1,Table S2 B row 234 (dsDNA) DNA 1: GGGGGAATGTAGGAAGTATCATCGCCTACAAGAAAG DNA 2: CTTTCTTGTAGGCGATGATACTTCCTACATTCCCCC,"948 PBM fluorescence, median of replicate spots"
2,Table S2 B row 3245 (dsDNA) DNA 1: GCGCCCGGAAGGAAGGCTGGGGTAGGTTGTAGTTTC DNA 2: GAAACTACAACCTACCCCAGCCTTCCTTCCGGGCGC,"1030 PBM fluorescence, median of replicate spots"
3,Table S2 B row 3926 (dsDNA) DNA 1: GCTGTCCGTTTCCGAGATGTTAATGCGAGGTCTTGC DNA 2: GCAAGACCTCGCATTAACATCTCGGAAACGGACAGC,"1060 PBM fluorescence, median of replicate spots"
4,Table S2 C row 73 (dsDNA) DNA 1: GTGGCACCCTCAAGGGCCACAACGGCTGGGTAACCC DNA 2: GGGTTACCCAGCCGTTGTGGCCCTTGAGGGTGCCAC,"312 PBM fluorescence, median of replicate spots"
5,Table S2 B row 1447 (dsDNA) DNA 1: GCAGAAGGAAGTGTGGCTTGGCGCCGTGGCTCACAC DNA 2: GTGTGAGCCACGGCGCCAAGCCACACTTCCTTCTGC,"817 PBM fluorescence, median of replicate spots"
6,Table S2 B row 40 (dsDNA) DNA 1: TTGCGTCATTTCCGAGAGACTTTCGCGCCGCTGTTT DNA 2: AAACAGCGGCGCGAAAGTCTCTCGGAAATGACGCAA,"1300 PBM fluorescence, median of replicate spots"
7,Table S2 B row 935 (dsDNA) DNA 1: CAGTGGCAGTAGCCGTTTGGCCCTTCCTGCCCTGGG DNA 2: CCCAGGGCAGGAAGGGCCAAACGGCTACTGCCACTG,"882 PBM fluorescence, median of replicate spots"
8,Table S2 C row 53 (dsDNA) DNA 1: CCTGGGCTGCAGGCACCCACAGTCCAGAGGCTCAAA DNA 2: TTTGAGCCTCTGGACTGTGGGTGCCTGCAGCCCAGG,"318 PBM fluorescence, median of replicate spots"
9,Table S2 B row 126 (dsDNA) DNA 1: TGGCGCTTCCTGTCGCTACCCCAGCGGCCCAGGGCC DNA 2: GGCCCTGGGCCGCTGGGGTAGCGACAGGAAGCGCCA,"18100 PBM fluorescence, median of replicate spots"
10,Table S2 B row 411 (dsDNA) DNA 1: CGCCCTCCGGAAGAGAGGGCGGACAGCGCCCGCGCC DNA 2: GGCGCGGGCGCTGTCCGCCCTCTCTTCCGGAGGGCG,"1330 PBM fluorescence, median of replicate spots"
11,Table S2 C row 184 (dsDNA) DNA 1: CCAGCTAAGCGAGGGGCCGCAGGGAGCGCGGCCTCG DNA 2: CGAGGCCGCGCTCCCTGCGGCCCCTCGCTTAGCTGG,"274 PBM fluorescence, median of replicate spots"
12,Table S2 B row 2389 (dsDNA) DNA 1: TCTGCACATCCGAGAAGCCTCCGTGCTTTGCTGCCA DNA 2: TGGCAGCAAAGCACGGAGGCTTCTCGGATGTGCAGA,"803 PBM fluorescence, median of replicate spots"
13,Table S2 B row 1484 (dsDNA) DNA 1: CCCGGAAACTCAACTGCCCACTGCAGCGCCCGCCAT DNA 2: ATGGCGGGCGCTGCAGTGGGCAGTTGAGTTTCCGGG,"830 PBM fluorescence, median of replicate spots"
14,Table S2 C row 8 (dsDNA) DNA 1: CCACCCGGGGCCTGGACCGCACCACGGTCACTGGCG DNA 2: CGCCAGTGACCGTGGTGCGGTCCAGGCCCCGGGTGG,"316 PBM fluorescence, median of replicate spots"
15,Table S2 C row 122 (dsDNA) DNA 1: AGAGACAGTAGCAGCCGCGGTGACTGGCGGCCTCCT DNA 2: AGGAGGCCGCCAGTCACCGCGGCTGCTACTGTCTCT,"296 PBM fluorescence, median of replicate spots"
16,Table S2 C row 62 (dsDNA) DNA 1: GAGCATCTTGAGGTCTGTGGTTCAGCTACCAGCCCC DNA 2: GGGGCTGGTAGCTGAACCACAGACCTCAAGATGCTC,"296 PBM fluorescence, median of replicate spots"
17,Table S2 B row 3605 (dsDNA) DNA 1: GGGCTTCCCGGGTACAAAAATGGCTGTCGCTAGCGA DNA 2: TCGCTAGCGACAGCCATTTTTGTACCCGGGAAGCCC,"1230 PBM fluorescence, median of replicate spots"
18,Table S2 B row 4028 (dsDNA) DNA 1: GCCTGAAGGACTTCCGGGAACCGAAAAGCACGGTGT DNA 2: ACACCGTGCTTTTCGGTTCCCGGAAGTCCTTCAGGC,"19300 PBM fluorescence, median of replicate spots"
19,Table S2 C row 51 (dsDNA) DNA 1: CTTGGGAGTCCCTGCCGCGGTGACTCCCTGGGAGCT DNA 2: AGCTCCCAGGGAGTCACCGCGGCAGGGACTCCCAAG,"261 PBM fluorescence, median of replicate spots"
20,Table S2 C row 25 (dsDNA) DNA 1: CCAGCCCGGCCTCGGACCGCGGCACCCCTCCTGGCC DNA 2: GGCCAGGAGGGGTGCCGCGGTCCGAGGCCGGGCTGG,"312 PBM fluorescence, median of replicate spots"
21,Table S2 B row 1479 (dsDNA) DNA 1: CAGATTCCCGGAAAGGGGGACATGTAGCCGCCAAAG DNA 2: CTTTGGCGGCTACATGTCCCCCTTTCCGGGAATCTG,"1360 PBM fluorescence, median of replicate spots"

row,Binder,binding signal
1,Table S2 B row 3871 (dsDNA) DNA 1: CCTGAGAGATCCGGCGCGCGTCTTCCACCAAAATGC DNA 2: GCATTTTGGTGGAAGACGCGCGCCGGATCTCTCAGG,"1260 PBM fluorescence, median of replicate spots"
2,Table S2 B row 2233 (dsDNA) DNA 1: GCGCCATTTCCGCTGCGCAAGGCACCTCAGGCCCTG DNA 2: CAGGGCCTGAGGTGCCTTGCGCAGCGGAAATGGCGC,"18700 PBM fluorescence, median of replicate spots"
3,Table S2 C row 98 (dsDNA) DNA 1: AAAACCATCTTTAGGACCGCGGCCCCTTTAAGCGGC DNA 2: GCCGCTTAAAGGGGCCGCGGTCCTAAAGATGGTTTT,"284 PBM fluorescence, median of replicate spots"
4,Table S2 B row 1799 (dsDNA) DNA 1: AGCGGCCGAAGGAAGTGACGTTTGGGGCAGTAAGGC DNA 2: GCCTTACTGCCCCAAACGTCACTTCCTTCGGCCGCT,"1090 PBM fluorescence, median of replicate spots"
5,Table S2 B row 2753 (dsDNA) DNA 1: AGTTGCTTCCTAATCCTGCTGAGCCATTAGCCCCAA DNA 2: TTGGGGCTAATGGCTCAGCAGGATTAGGAAGCAACT,"1170 PBM fluorescence, median of replicate spots"
6,Table S2 B row 3719 (dsDNA) DNA 1: GACCTGGGCAGGAAGAGCGGCATTTGGGGCCCCCTG DNA 2: CAGGGGGCCCCAAATGCCGCTCTTCCTGCCCAGGTC,"1120 PBM fluorescence, median of replicate spots"
7,Table S2 C row 106 (dsDNA) DNA 1: ATTCACTCATCCCTCACCACAGCCAGCTGCTTGAGA DNA 2: TCTCAAGCAGCTGGCTGTGGTGAGGGATGAGTGAAT,"320 PBM fluorescence, median of replicate spots"
8,Table S2 B row 1867 (dsDNA) DNA 1: TCAGGAAGTGGTGTGACCAGCATGTGAACAGCGGCA DNA 2: TGCCGCTGTTCACATGCTGGTCACACCACTTCCTGA,"936 PBM fluorescence, median of replicate spots"
9,Table S2 B row 2956 (dsDNA) DNA 1: CTCTGAAGGAAGTGATGTTAGACGGCTGTAGGTGGT DNA 2: ACCACCTACAGCCGTCTAACATCACTTCCTTCAGAG,"910 PBM fluorescence, median of replicate spots"
10,Table S2 B row 3799 (dsDNA) DNA 1: GCAAAGATACATCCTTCTCCCCAGAGACTAAGTTTC DNA 2: GAAACTTAGTCTCTGGGGAGAAGGATGTATCTTTGC,"1150 PBM fluorescence, median of replicate spots"
11,Table S2 C row 16 (dsDNA) DNA 1: AAAAGCCCATGGGCACCCACAGCTTTGTCACAGTGC DNA 2: GCACTGTGACAAAGCTGTGGGTGCCCATGGGCTTTT,"288 PBM fluorescence, median of replicate spots"
12,Table S2 B row 3361 (dsDNA) DNA 1: GAACTACGTTTCCCGGCATGCACTGCAGGCCGCCGG DNA 2: CCGGCGGCCTGCAGTGCATGCCGGGAAACGTAGTTC,"787 PBM fluorescence, median of replicate spots"
13,Table S2 B row 1617 (dsDNA) DNA 1: ACCACCCCCAGAGACAAACTCACATCCTCTCCCTAG DNA 2: CTAGGGAGAGGATGTGAGTTTGTCTCTGGGGGTGGT,"1010 PBM fluorescence, median of replicate spots"
14,Table S2 C row 199 (dsDNA) DNA 1: AGCTCAGGCACCAGCTGAGGTTTGGCATTTGCTGGC DNA 2: GCCAGCAAATGCCAAACCTCAGCTGGTGCCTGAGCT,"296 PBM fluorescence, median of replicate spots"
15,Table S2 B row 2231 (dsDNA) DNA 1: GCGCCCTCCAGGAAACGCCGCGATTTACTGTCTGCC DNA 2: GGCAGACAGTAAATCGCGGCGTTTCCTGGAGGGCGC,"1190 PBM fluorescence, median of replicate spots"
16,Table S2 B row 2750 (dsDNA) DNA 1: CTAGTCTGTTTCCTCATCTGCCGCCTGCACGCCCGC DNA 2: GCGGGCGTGCAGGCGGCAGATGAGGAAACAGACTAG,"985 PBM fluorescence, median of replicate spots"
17,Table S2 C row 139 (dsDNA) DNA 1: GGAGCTGCTCCAGGCTGCGGTGGGATCAAAGCTACC DNA 2: GGTAGCTTTGATCCCACCGCAGCCTGGAGCAGCTCC,"316 PBM fluorescence, median of replicate spots"
18,Table S2 B row 1508 (dsDNA) DNA 1: GCTCCCTTCCTGAGCCTCTGCTGGCCTCACCAGAGG DNA 2: CCTCTGGTGAGGCCAGCAGAGGCTCAGGAAGGGAGC,"849 PBM fluorescence, median of replicate spots"
19,Table S2 C row 143 (dsDNA) DNA 1: CGGCCCCGCTGAGGGGCCGCAAGGACGAGGACGCCT DNA 2: AGGCGTCCTCGTCCTTGCGGCCCCTCAGCGGGGCCG,"300 PBM fluorescence, median of replicate spots"
20,Table S2 B row 3244 (dsDNA) DNA 1: CCCGCTGTCACTTCCTGCTTCCCTCCCGCGCACGTG DNA 2: CACGTGCGCGGGAGGGAAGCAGGAAGTGACAGCGGG,"19700 PBM fluorescence, median of replicate spots"
21,Table S2 B row 2446 (dsDNA) DNA 1: GGAACGGAGGCGGAAGGGGCCCTTCGGCGACGACGT DNA 2: ACGTCGTCGCCGAAGGGCCCCTTCCGCCTCCGTTCC,"869 PBM fluorescence, median of replicate spots"
